Data taken from patent publication US20070286858A1 (Pfizer, published 2007).
“And” between values parts separate entries of the source, which are not always exact repeats. Identical values can stand only once. Each block holds one binder with its values, some of them ahead of it.

How the values were obtained:
[1] = target: T1, human RAGE-Fc fusion protein (human, UniProt Q15109 23-344); assay: ELISA of in vitro translated ScFv on coated human RAGE-Fc, anti-Flag detection
T1 construct: also called hRAGE-Fc; huRAGE-Fc; not shown: Fc domain of human IgG
Protocol: ELISA plates coated with human RAGE-Fc (5 ug/ml) or BSA (200 ug/ml) in bicarbonate buffer overnight at 4° C., washed with PBS+tween 0.05% and blocked for 1 hour at room temperature with 2% milk powder PBS. Plates were incubated with in vitro translated ScFv for 2 hours at room temp. Plates were blocked and detection was with anti-Flag antibody (1/1000 dilution) followed by rabbit anti-mouse HRP (1/1000 dilution). […] Values for Kd of the ScFv in both formats as determined by BIACORE™ are used to determine the optimum antigen concentrations for selection experiments.

[2] = target: T2, soluble human streptavidin-tagged RAGE (human, UniProt Q15109 23-344); assay: BIACORE capture, hRAGE-SA over captured antibody, steady state affinity, FC2
T2 construct: also called hRAGE-SA; human RAGE-strep
Protocol: (§1) The assays were performed by coating anti-human Fc antibodies onto a CM5 BIA chip with 5000 RU (pH 5.0, 7 min.) in flow cells 1-4. Each antibody was captured by flowing at 2.0 μg/ml over the anti-Fc antibodies in flow cells 2-4 (flow cell 1 was used as a reference).

[3] = target: T2, soluble human streptavidin-tagged RAGE; assay: BIACORE capture, hRAGE-SA over captured antibody, steady state affinity, FC3
Protocol: as §1

[4] = target: T2, soluble human streptavidin-tagged RAGE; assay: BIACORE capture, hRAGE-SA over captured antibody, steady state affinity, FC4
Protocol: as §1

[5] = target: T2, soluble human streptavidin-tagged RAGE; assay: BIACORE capture, hRAGE-SA over captured antibody, 1:1 Langmuir global fit, FC2
Protocol: as §1

[6] = target: T2, soluble human streptavidin-tagged RAGE; assay: BIACORE capture, hRAGE-SA over captured antibody, 1:1 Langmuir global fit, FC3
Protocol: as §1

[7] = target: T2, soluble human streptavidin-tagged RAGE; assay: BIACORE capture, hRAGE-SA over captured antibody, 1:1 Langmuir global fit, FC4
Protocol: as §1

[8] = target: T3, murine RAGE-strep tag fusion protein (mouse, UniProt Q62151 23-343); assay: BIACORE capture, SA-Mu RAGE over captured antibody, 1:1 Langmuir global fit, FC2
T3 construct: also called mRAGE-strep; mRAGE-SA
T3 chain: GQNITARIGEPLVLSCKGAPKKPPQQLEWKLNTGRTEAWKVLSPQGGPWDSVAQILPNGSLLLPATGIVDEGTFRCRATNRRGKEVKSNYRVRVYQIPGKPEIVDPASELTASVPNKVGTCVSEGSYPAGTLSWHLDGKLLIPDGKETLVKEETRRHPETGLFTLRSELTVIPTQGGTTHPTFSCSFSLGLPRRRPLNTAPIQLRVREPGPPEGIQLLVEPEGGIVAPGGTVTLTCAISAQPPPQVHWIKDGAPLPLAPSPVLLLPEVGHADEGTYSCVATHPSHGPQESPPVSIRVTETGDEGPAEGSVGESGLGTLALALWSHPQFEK
Protocol: as §1

[9] = target: T3, murine RAGE-strep tag fusion protein; assay: BIACORE capture, SA-Mu RAGE over captured antibody, 1:1 Langmuir global fit, FC3
Protocol: as §1

[10] = target: T3, murine RAGE-strep tag fusion protein; assay: BIACORE capture, SA-Mu RAGE over captured antibody, 1:1 Langmuir global fit, FC4
Protocol: as §1

[11] = target: T2, soluble human streptavidin-tagged RAGE; assay: BIACORE capture, hRAGE-SA over captured antibody, steady state affinity, row Average
Protocol: as §1

[12] = target: T2, soluble human streptavidin-tagged RAGE; assay: BIACORE capture, hRAGE-SA over captured antibody, 1:1 Langmuir global fit, row Average
Protocol: as §1

[13] = target: T3, murine RAGE-strep tag fusion protein; assay: BIACORE capture, SA-Mu RAGE over captured antibody, 1:1 Langmuir global fit, row Average
Protocol: as §1

[14] = target: T1, human RAGE-Fc fusion protein; assay: competition ELISA on coated hRAGE-Fc; competitor 12.5 ng/ml biotinylated rat XT-M4
Protocol: ELISA plates were coated overnight with 1 ug/ml human RAGE-Fc. […] Briefly, plates were coated overnight with 1 ug/ml human RAGE-Fc.

BSA = target: T4, BSA (Bos taurus, UniProt P02769); assay: ELISA of E. coli periplasmic ScFv cross-linked with anti-His antibody, on coated BSA
T4 construct: control antigen in the ScFv ELISA; also called bovine serum albumin
Protocol: ActRIIb represents a non-binding protein expressed from the same vector as a negative control. ELISA plates were coated with human RAGE-Fc (5 ug/ml) or BSA (200 ug/ml) in bicarbonate buffer overnight at 4 °C, washed with PBS+tween 0.05% and blocked for 1 hour at room temperature with 2% milk powder PBS. Periplasmic preparations of 20 ml E. coli cultures were performed using standard procedures. The final volume of periplasmic preparations of unpurified ScFv antibodies was 1 ml of which 50 ul was pre-incubated with anti-His antibody at 1/1000 dilution for 1 hour at room temperature in a total volume of 100 ul with 2% milk powder PBS. The cross linked periplasmic preparations were added to the ELISA plate and incubated for a further 2 hours at room temperature. The plates were washed 2 times with PBS+0.05% tween and 2 times with PBS and incubated with rabbit anti-mouse HRP at 1/1000 dilution in 2% milk powder PBS. The plates were washed as before and binding was detected using standard TMB reagents. […] Starting Kd values of the ScFv in both formats as determined by BIACORE™ are used to determine the optimum antigen concentrations for affinity selections.

T4 sequence (P02769 25-607 limits assumed): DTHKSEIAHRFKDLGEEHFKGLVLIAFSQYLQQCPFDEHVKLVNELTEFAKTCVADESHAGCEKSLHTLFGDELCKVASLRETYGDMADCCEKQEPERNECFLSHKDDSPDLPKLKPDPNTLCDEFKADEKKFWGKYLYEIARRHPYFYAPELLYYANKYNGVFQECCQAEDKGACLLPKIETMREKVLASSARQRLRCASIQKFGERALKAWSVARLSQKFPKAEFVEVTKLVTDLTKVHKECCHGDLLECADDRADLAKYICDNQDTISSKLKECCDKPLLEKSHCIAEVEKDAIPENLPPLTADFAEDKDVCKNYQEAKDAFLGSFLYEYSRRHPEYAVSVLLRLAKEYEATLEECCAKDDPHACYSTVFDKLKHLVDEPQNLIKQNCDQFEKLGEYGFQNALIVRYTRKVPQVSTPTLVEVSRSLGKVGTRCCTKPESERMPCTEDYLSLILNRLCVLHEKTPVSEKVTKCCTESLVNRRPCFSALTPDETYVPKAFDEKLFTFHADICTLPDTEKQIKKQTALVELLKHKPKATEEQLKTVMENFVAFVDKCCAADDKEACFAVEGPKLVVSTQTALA

B1: XT-M4 VH-VL ScFv construct (scFv)
scFv: EVQLVESGGGLVQPGRSLKLSCVVSGFTFNNYWMTWIRQTPGKGLEWVASINNSGDNTYYPDSVKDRFTISRDNAKSTLYLQMNSLRSEDTATYYCTRGGDITTGFDYWGQGVMVTVSSDGGGSGGGGSGGGGSSDIQMTQSPSSMSVSLGDTITITCRASQDVGIYVNWFQQKPGKSPRRMIYRATNLADGVPSRFSGSRSGSIYSLTISSLESEDVADYHCLEFDEHPLTFGSGTKVEIK
notes: Flag tag inferred from detection
binding result [1]: binds

B2: XT-M4-V14 (antibody, V domains shown)
VH: EVQLVESGGGLVQPGGSLRLSCAASGFTFNNYWMTWVRQAPGKGLEWVASIDNSGDNTYYPDSVKDRFTISRDNAKNSLYLQMNSLRAEDTAVYYCARGGDITTGFDYWGQGTLVTVSS
VL: DIQMTQSPSSLSASVGDRVTITCRASQDVGIYVNWFQQKPGKAPKRLIYRATNLADGVPSRFSGSRSGTDFTLTISSLQPEDFATYYCLEFDEHPLTFGGGTKVEIK
Kd [2]: 16 nM | Kd [3]: 15 nM | Kd [4]: 16 nM | Kd [5]: 13.8 nM | koff [5]: 0.0366 s⁻¹ | kon [5]: 2.66e+06 M⁻¹ s⁻¹ | Kd [6]: 11.7 nM | koff [6]: 0.0464 s⁻¹ | kon [6]: 3.96e+06 M⁻¹ s⁻¹ | Kd [7]: 13.2 nM | koff [7]: 0.0661 s⁻¹ | kon [7]: 5.02e+06 M⁻¹ s⁻¹ | Kd [8]: 2 nM | koff [8]: 0.0043 s⁻¹ | kon [8]: 2.2e+06 M⁻¹ s⁻¹ | Kd [9]: 1.9 nM | koff [9]: 0.004 s⁻¹ | kon [9]: 2.1e+06 M⁻¹ s⁻¹ | Kd [10]: 2 nM | koff [10]: 0.0041 s⁻¹ | kon [10]: 2.1e+06 M⁻¹ s⁻¹ | Kd [11]: 16 nM | Kd [12]: 12.9 nM | koff [12]: 0.0497 s⁻¹ | kon [12]: 3.88e+06 M⁻¹ s⁻¹ | Kd [13]: 2 nM | koff [13]: 0.0042 s⁻¹ | kon [13]: 2.1e+06 M⁻¹ s⁻¹

B6: XT-M4-V11 (antibody, V domains shown)
VH: EVQLVESGGGLVQPGGSLRLSCAASGFTFNNYWMTWVRQAPGKGLEWVASIDNSGDNTYYPDSVKDRFTISRDNAKNSLYLQMNSLRAEDTAVYYCARGGDITTGFDYWGQGTLVTVSS
VL: DIQMTQSPSSLSASVGDRVTITCRASQDVGIYVNWFQQKPGKAPRRLIYRATNLADGVPSRFSGSRSGTDFTLTISSLQPEDFATYYCLEFDEHPLTFGGGTKVEIK
Kd [2]: 16 nM | Kd [3]: 15 nM | Kd [4]: 17 nM | Kd [5]: 13 nM | koff [5]: 0.033 s⁻¹ | kon [5]: 2.5e+06 M⁻¹ s⁻¹ | Kd [6]: 12 nM | koff [6]: 0.039 s⁻¹ | kon [6]: 3.4e+06 M⁻¹ s⁻¹ | Kd [7]: 13 nM | koff [7]: 0.041 s⁻¹ | kon [7]: 3.2e+06 M⁻¹ s⁻¹ | Kd [8]: 2 nM | koff [8]: 0.0043 s⁻¹ | kon [8]: 2.2e+06 M⁻¹ s⁻¹ | Kd [9]: 2 nM | koff [9]: 0.0042 s⁻¹ | kon [9]: 2.1e+06 M⁻¹ s⁻¹ | Kd [10]: 2 nM | koff [10]: 0.0041 s⁻¹ | kon [10]: 2e+06 M⁻¹ s⁻¹ | Kd [11]: 16 nM | Kd [12]: 12.5 nM | koff [12]: 0.0374 s⁻¹ | kon [12]: 3.01e+06 M⁻¹ s⁻¹ | Kd [13]: 2 nM | koff [13]: 0.0042 s⁻¹ | kon [13]: 2.1e+06 M⁻¹ s⁻¹

B7: humanized XT-M4 hVH-V2.0 / hVL-V2.11 (antibody, human IgG1, V domains shown)
VH: EVQLVESGGGLVQPGGSLRLSCAASGFTFNNYWMTWVRQAPGKGLEWVASIDNSGDNTYYPDSVKDRFTISRDNAKNSLYLQMNSLRAEDTAVYYCARGGDITTGFDYWGQGTLVTVSS
VL: DIQMTQSPSSLSASVGDRVTITCRASQDVGIYVNWFQQKPGKAPRRLIYRATNLADGVPSRFSGSRSGTDFTLTISSLQPEDFATYYCLEFDEHPLTFGGGTKVEIK
IC50 [14]: 0.15 to 1.05 µg/mL and 0.1 to 0.45 µg/mL

B8: XT-M4 VL-VH ScFv construct (scFv)
scFv: DIQMTQSPSSMSVSLGDTITITCRASQDVGIYVNWFQQKPGKSPRRMIYRATNLADGVPSRFSGSRSGSIYSLTISSLESEDVADYHCLEFDEHPLTFGSGTKVEIKDGGGSGGGGSGGGGSSEVQLVESGGGLVQPGRSLKLSCVVSGFTFNNYWMTWIRQTPGKGLEWVASINNSGDNTYYPDSVKDRFTISRDNAKSTLYLQMNSLRSEDTATYYCTRGGDITTGFDYWGQGVMVTVSS
notes: Tags (Flag in vitro, His in E. coli) inferred from detection
binding result [1]: binds | binding result (BSA): no binding

B9: XT-H2 VH-VL ScFv construct (scFv)
scFv: QVQLQQSGAELAKPGASVKMSCKASGYTFTTYWMHWVKQRPGQGLYWIGYINPSTGYTEYNQKFKDKATLTADKSSSTAYMQLSSLTSEDSAVYYCARWAGYTIDYWGQGTSVTVSSDGGGSGGGGSGGGGSSDVVLTQTPLSLPVNIGDQASISCKSTKSLLNSDGFTYLDWYLQKPGQSPQLLIYLVSDRFSGVPDRFSGSGSGTDFTLTISRVEAEDLGVYYCFQSNSLPLTFGSGTKLEIK
notes: as for B1
binding result [1]: binds

Now from value to binder:

IC50 [14]: 0.2 µg/mL
B3: humanized XT-M4 hVH-V2.0 / hVL-V2.14 (antibody, human IgG1, V domains shown)
VH: EVQLVESGGGLVQPGGSLRLSCAASGFTFNNYWMTWVRQAPGKGLEWVASIDNSGDNTYYPDSVKDRFTISRDNAKNSLYLQMNSLRAEDTAVYYCARGGDITTGFDYWGQGTLVTVSS
VL: DIQMTQSPSSLSASVGDRVTITCRASQDVGIYVNWFQQKPGKAPKRLIYRATNLADGVPSRFSGSRSGTDFTLTISSLQPEDFATYYCLEFDEHPLTFGGGTKVEIK

IC50 [14]: 2.7 µg/mL
B4: humanized XT-M4 hVH-V2.0 / hVL-V2.12 (antibody, human IgG1, V domains shown)
VH: EVQLVESGGGLVQPGGSLRLSCAASGFTFNNYWMTWVRQAPGKGLEWVASIDNSGDNTYYPDSVKDRFTISRDNAKNSLYLQMNSLRAEDTAVYYCARGGDITTGFDYWGQGTLVTVSS
VL: DIQMTQSPSSLSASVGDRVTITCRASQDVGIYVNWYQQKPGKAPRRLIYRATNLADGVPSRFSGSRSGTDFTLTISSLQPEDFATYYCLEFDEHPLTFGGGTKVEIK

IC50 [14]: 1.5 µg/mL
B5: humanized XT-M4 hVH-V2.0 / hVL-V2.13 (antibody, human IgG1, V domains shown)
VH: EVQLVESGGGLVQPGGSLRLSCAASGFTFNNYWMTWVRQAPGKGLEWVASIDNSGDNTYYPDSVKDRFTISRDNAKNSLYLQMNSLRAEDTAVYYCARGGDITTGFDYWGQGTLVTVSS
VL: DIQMTQSPSSLSASVGDRVTITCRASQDVGIYVNWYQQKPGKAPKRLIYRATNLADGVPSRFSGSRSGTDFTLTISSLQPEDFATYYCLEFDEHPLTFGGGTKVEIK
